Results on four molecules are retold here after patent publication US20190233517A1 (published 2019).

The target in assay [1] is T1, cynomolgus CD3 on primary cynomolgus T cells (UniProt Q95LI5 22-198).
T1 epsilon: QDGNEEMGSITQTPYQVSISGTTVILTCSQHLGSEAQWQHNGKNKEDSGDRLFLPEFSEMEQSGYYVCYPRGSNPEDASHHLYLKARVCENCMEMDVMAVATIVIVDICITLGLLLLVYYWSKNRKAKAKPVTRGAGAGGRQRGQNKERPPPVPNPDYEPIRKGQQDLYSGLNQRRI
As to the kind of experiment: FACS binding; cyno T cells.

In assay [2] the target is T2, cynomolgus CD20 on transiently transfected HEK 293 cells (cynomolgus, UniProt M4ZHZ6 1-297).
T2 chain: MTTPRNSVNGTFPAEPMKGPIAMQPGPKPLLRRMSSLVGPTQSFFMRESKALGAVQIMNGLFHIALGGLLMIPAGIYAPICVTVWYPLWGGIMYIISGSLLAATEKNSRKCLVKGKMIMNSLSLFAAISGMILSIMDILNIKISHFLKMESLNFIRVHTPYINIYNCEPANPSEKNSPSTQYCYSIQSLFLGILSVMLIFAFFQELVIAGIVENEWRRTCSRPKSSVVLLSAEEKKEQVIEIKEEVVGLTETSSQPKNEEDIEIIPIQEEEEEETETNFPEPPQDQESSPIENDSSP
Nature of the assay: FACS binding; 293F-cynoCD20 cells. A general note: Flow cytometry measures light scatter and fluorescence of single cells or particles in a stream.

Assay [3] concerns the target T3, CD20 on the cell surface of Raji cells (human, UniProt P11836 1-297).
T3 chain: T2 chain with P25S, L31F, A51T, V157A, R217K, S226N, V227I, V239T
As to the kind of experiment: FACS binding; Raji cells.

Assay [4] has as its target CD3 on the cell surface of Jurkat cells (human, UniProt P07766 23-207; P04234 22-171; P09693 23-182). As to the kind of experiment: FACS binding; Jurkat cells.
The target of assay [5] is T1, cynomolgus CD3 on primary cynomolgus T …. As to the kind of experiment: FACS.
The target in assay [6] is T2, cynomolgus CD20 on transiently …. Nature of the assay: FACS.
The target in assay [7] is T3, CD20 on the cell surface of Raji cells. Nature of the assay: FACS binding; Raji cells.

Changes are numbered by the printed parent chain. Where two headings read alike, the source gives them in different places.

B1: FIT018a CD20 (Ofatumumab)/CD3 mAb (bispecific antibody)
chain 1: not shown
chain 2: EVQLVESGGGLVQPGRSLRLSCAASGFTFNDYAMHWVRQAPGKGLEWVSTISWNSGSIGYADSVKGRFTISRDNAKKSLYLQMNSLRAEDTALYYCAKDIQYGNYYYGMDVWGQGTTVTVSSASTKGPSVFPLAPSSKSTSGGTAALGCLVKDYFPEPVTVSWNSGALTSGVHTFPAVLQSSGLYSLSSVVTVPSSSLGTQTYICNVNHKPSNTKVDKKVEPKSC
chain 3: ELVVTQEPSLTVSPGGTVTLTCRSSTGAVTTSNYANWVQQKPGQAPRGLIGGTNKRAPGTPARFSGSLLGGKAALTLSGVQPEDEAEYYCALWYSNLWVFGGGTKLTVLGQPKAAPSVTLFPPSSEELQANKATLVCLISDFYPGAVTVAWKADSSPVKAGVETTTPSKQSNNKYAASSYLSLTPEQWKSHRSYSCQVTHEGSTVEKTVAPTECS
As for B1, the EC50 in assay [1] is 3.85 nM; in assay [2], 14.3 nM; in assay [3], 16.8 nM.

B2: CD3 mAb (described in US2009/0252683) (antibody, V domains shown)
VH: EVQLLESGGGLVQPGGSLKLSCAASGFTFNTYAMNWVRQAPGKGLEWVARIRSKYNNYATYYADSVKDRFTISRDDSKNTAYLQMNNLKTEDTAVYYCVRHGNFGNSYVSWFAYWGQGTLVTVSS
VL: ELVVTQEPSLTVSPGGTVTLTCRSSTGAVTTSNYANWVQQKPGQAPRGLIGGTNKRAPGTPARFSGSLLGGKAALTLSGVQPEDEAEYYCALWYSNLWVFGGGTKLTVL
On to B2, for which the half-maximal effective concentration (EC50) in assay [1] is 1.15 nM; in assay [3] it was roughly 8160 nM; in assay [4], 0.848 nM.

B3: anti-CD20 (Ofatumumab) (antibody, V domains shown)
VH: EVQLVESGGGLVQPGRSLRLSCAASGFTFNDYAMHWVRQAPGKGLEWVSTISWNSGSIGYADSVKGRFTISRDNAKKSLYLQMNSLRAEDTALYYCAKDIQYGNYYYGMDVWGQGTTVTVSS
VL: EIVLTQSPATLSLSPGERATLSCRASQSVSSYLAWYQQKPGQAPRLLIYDASNRATGIPARFSGSGSGTDFTLTISSLEPEDFAVYYCQQRSNWPITFGQGTRLEIK
Regarding B3, the EC50 in assay [5] was 490 nM; in assay [6], 3.07 nM.

B4: FIT021b (antibody)
chain 1: not shown
chain 2: MEFGLSWLFLVAILKGVQCEVQLVESGGGLVQPGRSLRLSCAASGFTFNDYAMHWVRQAPGKGLEWVSTISWNSGSIGYADSVKGRFTISRDNAKKSLYLQMNSLRAEDTALYYCAKDIQYGNYYYGMDVWGQGTTVTVSSASTKGPSVFPLAPSSKSTSGGTAALGCLVKDYFPEPVTVSWNSGALTSGVHTFPAVLQSSGLYSLSSVVTVPSSSLGTQTYICNVNHKPSNTKVDKKVEPKSC
chain 3: MDMRVPAQLLGLLLLWFPGSRCDIQLTQSPSSLSASVGDRVTMSCKSSQSVLYSANHKNYLAWYQQKPGKAPKLLIYWASTRESGVPSRFSGSGSGTDFTFTISSLQPEDIATYYCHQYLSSWTFGGGTKLEIKRTVAAPSVFIFPPSDEQLKSGTASVVCLLNNFYPREAKVQWKVDNALQSGNSQESVTEQDSKDSTYSLSSTLTLSKADYEKHKVYACEVTHQGLSSPVTKSFNRGEC
On to B4, for which the EC50 in assay [7] was determined as 7.66 nM.

In general, EC50 refers to the concentration needed to bring the measured effect to its halfway point. Lower therefore signals an effect from little substance.
